T1: estrogen receptor α (ERα) (Homo sapiens, UniProt P03372)
T1 construct: made in house
T1 sequence (P03372 1-595): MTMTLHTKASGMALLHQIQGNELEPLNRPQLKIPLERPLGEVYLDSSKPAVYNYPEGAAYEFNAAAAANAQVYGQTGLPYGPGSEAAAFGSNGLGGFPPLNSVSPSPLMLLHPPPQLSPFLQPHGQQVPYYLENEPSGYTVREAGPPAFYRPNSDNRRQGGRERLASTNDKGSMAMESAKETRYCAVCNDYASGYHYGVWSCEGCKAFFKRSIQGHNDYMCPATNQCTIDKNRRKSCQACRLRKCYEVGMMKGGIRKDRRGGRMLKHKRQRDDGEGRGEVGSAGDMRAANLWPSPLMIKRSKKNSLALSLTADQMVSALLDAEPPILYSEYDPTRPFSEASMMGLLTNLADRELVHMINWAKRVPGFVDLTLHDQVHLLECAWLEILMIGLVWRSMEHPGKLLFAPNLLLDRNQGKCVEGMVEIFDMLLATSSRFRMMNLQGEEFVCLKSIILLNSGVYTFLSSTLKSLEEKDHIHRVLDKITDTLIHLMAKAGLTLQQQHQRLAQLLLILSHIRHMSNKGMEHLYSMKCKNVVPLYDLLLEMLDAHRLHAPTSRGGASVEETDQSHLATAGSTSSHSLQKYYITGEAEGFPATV

T2: Progesterone Receptor β (PRβ) (Homo sapiens, UniProt P06401)
T2 sequence (P06401 1-933): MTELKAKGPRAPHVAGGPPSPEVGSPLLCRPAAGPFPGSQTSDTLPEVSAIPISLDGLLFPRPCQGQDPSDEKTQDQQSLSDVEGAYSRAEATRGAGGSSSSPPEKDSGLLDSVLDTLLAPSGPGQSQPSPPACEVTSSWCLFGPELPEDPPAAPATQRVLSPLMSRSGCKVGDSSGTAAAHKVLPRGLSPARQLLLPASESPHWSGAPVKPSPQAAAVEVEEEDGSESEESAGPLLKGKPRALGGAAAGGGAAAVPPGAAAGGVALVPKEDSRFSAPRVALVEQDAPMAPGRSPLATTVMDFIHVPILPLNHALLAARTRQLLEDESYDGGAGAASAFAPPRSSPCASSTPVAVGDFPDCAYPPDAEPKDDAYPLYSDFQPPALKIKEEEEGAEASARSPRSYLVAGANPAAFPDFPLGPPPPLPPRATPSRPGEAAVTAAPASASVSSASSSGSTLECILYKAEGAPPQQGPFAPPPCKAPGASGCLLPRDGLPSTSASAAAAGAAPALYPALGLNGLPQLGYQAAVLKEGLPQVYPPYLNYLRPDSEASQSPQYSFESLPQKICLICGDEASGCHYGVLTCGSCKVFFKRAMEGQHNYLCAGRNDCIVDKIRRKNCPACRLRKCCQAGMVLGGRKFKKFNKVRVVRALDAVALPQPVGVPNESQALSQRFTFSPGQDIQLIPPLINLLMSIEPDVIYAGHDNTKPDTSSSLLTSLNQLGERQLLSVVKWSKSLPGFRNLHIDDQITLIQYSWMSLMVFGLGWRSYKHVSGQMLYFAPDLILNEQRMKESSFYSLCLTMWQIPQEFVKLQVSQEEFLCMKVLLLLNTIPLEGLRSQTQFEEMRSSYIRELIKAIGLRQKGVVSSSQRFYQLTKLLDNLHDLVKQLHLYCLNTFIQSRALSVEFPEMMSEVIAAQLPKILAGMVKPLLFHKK

B1: ERCoA3: 79 amino acid ER coactivator protein (SEQ. ID. NO. 2); used as GST fusion or expressed from vector (protein, listed as Homo sapiens)
chain: MCGRPRRVSAGCGFADAHWTGLWTGLGEGQEGGIGPEGQASPTPDCASRWPRSASRWPWSAGLTVRDRPQLGELCMGRG

Columns and labels:
ERCoA3 = assay: Northern hybridization for ERCoA3 expression in MCF-7 cells; assay type: cell-based, human; conditions: 10^-8 M, 24 h
Experimental: FIG. 8. ERCoA3 is expressed in cells that respond to tamoxifen as an agonist. (A) Total RNA was isolated from untreated parental MCF-7 cells (−), and cells treated for 24 h with 10^−8 M estradiol (E2) or 10^−8 M trans-hydroxytamoxifen (TOT), and tamoxifen resistant cells (TOT^R). (B) Total RNA was collected from untreated Hec cells and cells treated for 24 h with 10^−8 M estradiol (E2) or 10^−8 M trans-hydroxytamoxifen. Equal amounts (20 μg) of total RNA were separated by electrophoresis. Blots were probed with the random primer labeled ERCoA3 cDNA and 36B4 cDNA (to control for RNA loading).
It was determined whether there was increased expression of ERCoA3 in cells that were resistant to SERMs, specifically TOT. RNA was isolated from MCF-7 cells and also from tamoxifen-resistant (TOT^R) MCF-7 cells. Northern hybridization was performed using an ERCoA3 probe. These experiments indicated increased expression of ERCoA3 in TOT^R MCF-7 cells when compared to parental MCF-7 cells (FIG. 8A). […] Expression of ERCoA3 was also examined in another human cell line, human endometrium cancer cell line, HEC-1B.

[1] = molecular target: T1, estrogen receptor α (ERα); assay: GST-ERCoA3 protein-protein interaction (pull-down) assay with [35S]-ERα; assay type: binding; conditions: vehicle, 10^-6 M E2, TOT or ICI
Experimental: (§1) FIG. 4. ERCoA3 preferentially interacts with antagonist-bound ERα and PRβ. In vitro translated and [^35S]-methionine-labeled (A) Estrogen Receptor α (ERα) or (B) Progesterone Receptor β (PRβ) were incubated with GST alone or GST-ERCoA3 bound to Sepharose in the presence of vehicle, 10^−6 M Estradiol (E2), 10^−6 M trans-hydroxytamoxifen (TOT), 10^−6 M ICI 182,780 (ICI), 10^−6 M R5020, or 10^−6 M RU-486 as indicated. Bound protein was eluted with excess glutathione and analyzed by 12.5% SDS-polyacrylamide gel electrophoresis. The autoradiograph is representative of 3 separate experiments. Abbreviations: E2, 17-β estradiol; TOT, transhydroxytamoxifen; ICI, ICI182,780 (a pure ER antagonist); R5020, a synthetic PR agonist, and RU-486, a partial agonist of PRβ.
A protein-protein interaction assay was used in which the affinity matrix (i.e., bound to a column) was a glutathione-S-transferase (GST) fusion protein wherein GST was fused to ERCoA3. In vitro transcribed and translated [^35S]-ERα was retained by the GST-ERCoA3 affinity column preferentially in the presence of antiestrogens, trans-hydroxytamoxifen (TOT) and ICI182,780 (ICI) when compared to estradiol (E2) (FIG. 4A). ERα was not retained on the GST protein column without ERCoA3 (or GST alone).

[2] = molecular target: T2, Progesterone Receptor β (PRβ); assay: GST-ERCoA3 protein-protein interaction (pull-down) assay with [35S]-PRβ; assay type: binding; conditions: vehicle, 10^-6 M R5020 or RU-486
Experimental: as §1
(§2) Somewhat different findings were made with Progesterone Receptor β (PRβ).

[3] = molecular target: T2, Progesterone Receptor β (PRβ); assay: MMTV-CAT reporter assay in CHO cells transfected with PRβ; assay type: cell-based; parameters: expressed in transfected cells; host or cells: CHO cells; conditions: CHO cells cotransfected with ERCoA3 vs cmv5 control; unliganded, 10^-8 M R5020 or RU-486, 24 h
Experimental: FIG. 7. ERCoA3 enhances partial agonist activity of RU-486. CHO cells were transfected with expression vectors for Progesterone Receptor β (PRβ) or reporter construct MMTV-CAT. The cells were cotransfected with cmv5 control expression vector or expression vector for ERCoA3 as indicated. The cells were also transfected with a β-galactosidase internal control reporter to correct for transfection efficiency. Cells were then treated for 24 h with 10^−8 M R5020 or RU-486. Values are the means ±S.E. from three separate experiments.
as §2

[4] = tested on: ERα transcriptional activity; assay: (ERE)2-PS2-CAT reporter assay in MCF-7 cells; assay type: cell-based, human; conditions: MCF-7 cells cotransfected with ERCoA3 vs cmv5 control; 10^-8 M E2 plus increasing TOT or ICI, 24 h
Experimental: FIG. 6. ERCoA3 attenuates the antiestrogenic effects of TOT and ICI on ERα transcriptional activity. MCF-7 cells were transfected with (ERE)2-PS2-CAT reporter construct. The cells were cotransfected with cmv5 control expression vector or expression vector for ERCoA3, as indicated. The cells were also transfected with a β-galactosidase internal control reporter to correct for transfection efficiency. Cells were then treated for 24 h with 10^−8 M estradiol (E2) and increasing concentration of trans-hydroxytamoxifen (TOT; panel A) or ICI 182,780 (ICI; panel B). Values are the means ±S.E. from three separate experiments.
Another very similar study examined the effect of ERCoA3 on the ability of TOT (FIG. 6A) and ICI (FIG. 6B) to block activation of ER. MCF-7 cells were transfected with a CAT reporter construct wherein transcription of the CAT gene was regulated by a estrogen-responsive element, or with both a CAT reporter construct and an expression vector for ERCoA3. The cells were then grown in TOT or ICI and CAT activity was assayed.

ERα = assay: (ERE)2-TATA-CAT reporter assay in CHO cells transfected with ERα; assay type: cell-based; conditions: CHO cells cotransfected with ERCoA3 expression vector vs cmv5 control; estrogen, TOT or ICI, 24 h
Experimental: FIG. 5. ERCoA3 enhances partial agonist activity of antiestrogens. CHO cells were transfected with expression vectors for ERα and reporter construct (ERE)2-TATA-CAT. The cells were cotransfected with cmv5 control expression vector or expression vector for ERCoA3, as indicated. The cells were also transfected with a β-galactosidase internal control reporter to correct for transfection efficiency. Cells were then treated for 24 h with control vehicle or increasing concentrations of estradiol (E2), trans-hydroxytamoxifen (TOT) or ICI 182,780, as indicated. Values are the means ± S.E. from three separate experiments.
The ability of ERCoA3 to affect the response that a ligand has on ER was then tested. CHO cells were transfected with a CAT reporter construct wherein transcription of the CAT gene was regulated by a estrogen-responsive element, or with both a CAT reporter construct and an expression vector for ERCoA3. The cells were grown in either estrogen, TOT or ICI, and CAT activity was assayed.

Row | Molecule | ERCoA3 expression (Northern) (ERCoA3) | retention of [35S]-ERα on GST-ERCoA3 affinity column [1] | interaction of ERCoA3 with PRβ [2] | PRβ transcriptional activity [3] | activation of ER (CAT activity) in presence of TOT or ICI [4] | CAT activity (activation of ER) (ERα)
1 | C[C@]12CC[C@@H]3c4ccc(O)cc4CC[C@H]3[C@@H]1CC[C@@H]2O [E2, 17-β-estradiol] | Neither E2 nor TOT affected ERCoA3 expression | – | – | – | – | –
2 | trans-hydroxytamoxifen [TOT] | Neither E2 nor TOT affected ERCoA3 expression | – | – | – | – | –
3 | B1 | – | binds ER but binds ER better if ER are already bound to a partial agonist or antagonist | interacted with both unliganded and antiprogestin- (RU-486, a partial agonist) bound PRβ | enhanced the activity of both unliganded and RU-486-bound PRβ | increases activation of ER | increased CAT activity

From patent publication US7459543B2, “Modulators of antiestrogen pharmacology” (priority 2000, dated 2008)
